The target in the test is FGFR/β-Klotho receptor complex. In words: cell-based or functional assay.

These results are taken from patent US20210070829A1.

On to “Native FGF21 (from UniProt Q9NSA1 29-209) (ligand)”, for which the FGF21 activity EC50 (luciferase reporter) worked out at 0.12 nM.
